Data as given in US20130004505A1 (CELLTRION, published 2013).
Numbering of substitutions follows the chain as printed.

B1: CT104 antibody (antibody, V domains shown)
VH: QVQLVQSGAEVKKPGSSVKVSCKASGGTLNNYAISWVRQAPGQGLEWMGGISPIFGTLNYAERFQGRVTITADVFTNTVYMELSSLRSEDTAVYFCARGCGYNCYYFDGWGQGTLVTVSS
VL: EIVLTQSPGTLSLSPGERATLSCRASQSLSSSSLVWYQQKPGQAPRLLIYGASSRATGIPDRFSGSGSGTDFTLTISRLEPEDFAVYYCQQYGNSPYTFGQGTQVEIKR
B2: CT123 antibody (antibody, V domains shown)
VH: QVQLVESGGGVVQPGRSLRLSCAASGFTFSRFGIHWVRQAPGKGLEWMAVIWYDGSNKFYADSVKGRFTISRDNSKNTVYLQMNSLRAEDTAVYYCAKDSRGYCSSIICFEGGLDNWGQGTLVTVSS
VL: B1 VL with I2T, L29V, S31I, S33Y, V35A, Q39R, S54R, N94S, Q104K, V105L
B3: CT120 antibody (antibody, V domains shown)
VH: QVQLVQSGAEVKMPGSSVKVSCKTSGVFFSSHAISWVRQAPGQGLEWMGGISPMFGTTHYAQKFQGRVTITADQSTTTAYMELTSLTSEDTAVYYCARDGAGSYYPLNWFDPWGQGTLVTVSS
VL: EIVLTQSPATLSLSPGERATLSCRASENIWNNLAWYQQKPGQAPRLLISGASTGATGVPSRFRGSGSRTEFTLTISSLQSEDFAIYFCQQYNSWPRTFGPGTKVEIKR

Experiments:
Experiment in all cases: cell-based or functional assay
[1] = target: T1, HA of influenza A virus H1N1 A/Texas/05/2009-RG15 (pandemic), on virus (influenza A virus H1N1 …)
[2] = target: T2, HA of influenza A virus H1N1 A/New York/18/2009-RG18 (pandemic), on virus (influenza A virus H1N1 (A/New …))
[3] = target: HA of influenza A virus H1N1 A/Solomon Islands/3/2006 (seasonal), on virus (influenza A virus H1N1 (A/Solomon …))
[4] = target: HA of influenza A virus H1N1 A/Ohio/83 (seasonal), on virus (influenza A virus H1N1 (A/Ohio/83))
[5] = target: HA of influenza A virus H2N2 A/Ann Arbor/6/60 ca, on virus (influenza A virus H2N2 (A/Ann …))
[6] = target: HA of influenza A virus H5N1 A/Vietnam/1203/04, on virus (influenza A virus H5N1 …)
[7] = target: HA of influenza A virus H5N1 A/Anhui/1/05, on virus (influenza A virus H5N1 (A/Anhui/1/05))
[8] = target: HA of influenza A virus H3N2 A/Wisconsin/67/2005, on virus (influenza A virus H3N2 …)
[9] = target: T1, HA of influenza A virus H1N1 …; remark: listed apart in the source
[10] = target: T2, HA of influenza A virus H1N1 A/New …; remark: listed apart in the source
[11] = target: T1, HA of influenza A virus H1N1 …; remark: listed apart in the source
[12] = target: T2, HA of influenza A virus H1N1 A/New …; remark: listed apart in the source

| Binder | MN assay: lowest antibody concentration at which no virus antigen was detected [1] | MN assay: lowest antibody concentration at which no virus antigen was detected [2] | MN assay: lowest antibody concentration at which no virus antigen was detected [3] | MN assay: lowest antibody concentration at which no virus antigen was detected [4] | MN assay: lowest antibody concentration at which no virus antigen was detected [5] | MN assay: lowest antibody concentration at which no virus antigen was detected [6] | MN assay: lowest antibody concentration at which no virus antigen was detected [7] | MN assay: lowest antibody concentration at which no virus antigen was detected [8] | Antibody concentration* (neutralizing antibody concentration) [9] | IC50 of neutralizing activity [9] | Antibody concentration* (neutralizing antibody concentration) [10] | IC50 of neutralizing activity [10] | Hemagglutination-inhibition test: hemagglutination inhibition end point [11] | Hemagglutination-inhibition test: hemagglutination inhibition end point [12] |
| --- | --- | --- | --- | --- | --- | --- | --- | --- | --- | --- | --- | --- | --- | --- |
| B1 | 0.313 µg/mL | 0.625 µg/mL | 0.625 µg/mL | 0.313 µg/mL | > 10 µg/mL | 1.25 µg/mL | 0.625 µg/mL | > 10 µg/mL | 0.313 µg/mL | 0.29 µg/mL | 1.25 µg/mL | 0.56 µg/mL | > 20 µg/mL | > 20 µg/mL |
| B2 | 0.313 µg/mL | 0.625 µg/mL | 1.25 µg/mL | 0.313 µg/mL | > 10 µg/mL | > 10 µg/mL | > 10 µg/mL | > 10 µg/mL | 0.625 µg/mL | 0.068 µg/mL | 1.25 µg/mL | 0.29 µg/mL | > 20 µg/mL | > 20 µg/mL |
| B3 | 0.313 µg/mL | 0.313 µg/mL | 0.625 µg/mL | 0.156 µg/mL | 2.5 µg/mL | 1.25 µg/mL | 0.625 µg/mL | > 10 µg/mL | 0.156 µg/mL | 0.15 µg/mL | 0.313 µg/mL | 0.31 µg/mL | > 20 µg/mL | > 20 µg/mL |
